Data published in patent US20250250321A1.

Molecular target: immunoglobulin G (IgG) obtained from human serum (human)
Test: human serum IgG (2 mg/mL) bound to Protein A on latex beads, washed, read by SDS-PAGE

- increase of binding activity compared to beads with the Protein A monomer: > 15%
Substance: Protein A polymer (UniStac linear multimeric polymer of Protein A) immobilized on latex beads
